# Experimental data taken from patent publication US20260055194A1.
# What was measured:
# [1] = molecular target: human CI-M6PR on K562 cells (human) (UniProt P11717); assay: flow cytometry, intracellular stain (fixed, permeabilized), M6PR-KO K562 cells, Alexa 647
# [2] = molecular target: human CI-M6PR on K562 cells (human) (UniProt P11717); assay: flow cytometry, intracellular stain (fixed, permeabilized), wild type K562 cells, Alexa 647
# [3] = molecular target: human CI-M6PR on K562 cells (human) (UniProt P11717); assay: flow cytometry, cell surface stain, M6PR-KO K562 cells, Alexa 647
# [4] = molecular target: human CI-M6PR on K562 cells (human) (UniProt P11717); assay: flow cytometry dot plot, intracellular stain, M6PR-KO K562 cells [Cont. 2]
# [5] = molecular target: human CI-M6PR on K562 cells (human) (UniProt P11717); assay: flow cytometry, cell surface stain, wild type K562 cells, Alexa 647
# [6] = molecular target: human CI-M6PR on K562 cells (human) (UniProt P11717); assay: flow cytometry dot plot, cell surface stain, wild type K562 cells [Cont. 1]
# [7] = molecular target: human CI-M6PR on K562 cells (human) (UniProt P11717); assay: flow cytometry dot plot, cell surface stain, M6PR-KO K562 cells [Cont. 2]
# [8] = molecular target: human CI-M6PR on K562 cells (human) (UniProt P11717); assay: flow cytometry dot plot, intracellular stain, wild type K562 cells [Cont. 1]
# [9] = molecular target: human CI-M6PR on K562 cells (human) (UniProt P11717); assay: cell-based or functional assay
# human CI-M6PR on K562 cells (human), sequence (P11717 41-2491): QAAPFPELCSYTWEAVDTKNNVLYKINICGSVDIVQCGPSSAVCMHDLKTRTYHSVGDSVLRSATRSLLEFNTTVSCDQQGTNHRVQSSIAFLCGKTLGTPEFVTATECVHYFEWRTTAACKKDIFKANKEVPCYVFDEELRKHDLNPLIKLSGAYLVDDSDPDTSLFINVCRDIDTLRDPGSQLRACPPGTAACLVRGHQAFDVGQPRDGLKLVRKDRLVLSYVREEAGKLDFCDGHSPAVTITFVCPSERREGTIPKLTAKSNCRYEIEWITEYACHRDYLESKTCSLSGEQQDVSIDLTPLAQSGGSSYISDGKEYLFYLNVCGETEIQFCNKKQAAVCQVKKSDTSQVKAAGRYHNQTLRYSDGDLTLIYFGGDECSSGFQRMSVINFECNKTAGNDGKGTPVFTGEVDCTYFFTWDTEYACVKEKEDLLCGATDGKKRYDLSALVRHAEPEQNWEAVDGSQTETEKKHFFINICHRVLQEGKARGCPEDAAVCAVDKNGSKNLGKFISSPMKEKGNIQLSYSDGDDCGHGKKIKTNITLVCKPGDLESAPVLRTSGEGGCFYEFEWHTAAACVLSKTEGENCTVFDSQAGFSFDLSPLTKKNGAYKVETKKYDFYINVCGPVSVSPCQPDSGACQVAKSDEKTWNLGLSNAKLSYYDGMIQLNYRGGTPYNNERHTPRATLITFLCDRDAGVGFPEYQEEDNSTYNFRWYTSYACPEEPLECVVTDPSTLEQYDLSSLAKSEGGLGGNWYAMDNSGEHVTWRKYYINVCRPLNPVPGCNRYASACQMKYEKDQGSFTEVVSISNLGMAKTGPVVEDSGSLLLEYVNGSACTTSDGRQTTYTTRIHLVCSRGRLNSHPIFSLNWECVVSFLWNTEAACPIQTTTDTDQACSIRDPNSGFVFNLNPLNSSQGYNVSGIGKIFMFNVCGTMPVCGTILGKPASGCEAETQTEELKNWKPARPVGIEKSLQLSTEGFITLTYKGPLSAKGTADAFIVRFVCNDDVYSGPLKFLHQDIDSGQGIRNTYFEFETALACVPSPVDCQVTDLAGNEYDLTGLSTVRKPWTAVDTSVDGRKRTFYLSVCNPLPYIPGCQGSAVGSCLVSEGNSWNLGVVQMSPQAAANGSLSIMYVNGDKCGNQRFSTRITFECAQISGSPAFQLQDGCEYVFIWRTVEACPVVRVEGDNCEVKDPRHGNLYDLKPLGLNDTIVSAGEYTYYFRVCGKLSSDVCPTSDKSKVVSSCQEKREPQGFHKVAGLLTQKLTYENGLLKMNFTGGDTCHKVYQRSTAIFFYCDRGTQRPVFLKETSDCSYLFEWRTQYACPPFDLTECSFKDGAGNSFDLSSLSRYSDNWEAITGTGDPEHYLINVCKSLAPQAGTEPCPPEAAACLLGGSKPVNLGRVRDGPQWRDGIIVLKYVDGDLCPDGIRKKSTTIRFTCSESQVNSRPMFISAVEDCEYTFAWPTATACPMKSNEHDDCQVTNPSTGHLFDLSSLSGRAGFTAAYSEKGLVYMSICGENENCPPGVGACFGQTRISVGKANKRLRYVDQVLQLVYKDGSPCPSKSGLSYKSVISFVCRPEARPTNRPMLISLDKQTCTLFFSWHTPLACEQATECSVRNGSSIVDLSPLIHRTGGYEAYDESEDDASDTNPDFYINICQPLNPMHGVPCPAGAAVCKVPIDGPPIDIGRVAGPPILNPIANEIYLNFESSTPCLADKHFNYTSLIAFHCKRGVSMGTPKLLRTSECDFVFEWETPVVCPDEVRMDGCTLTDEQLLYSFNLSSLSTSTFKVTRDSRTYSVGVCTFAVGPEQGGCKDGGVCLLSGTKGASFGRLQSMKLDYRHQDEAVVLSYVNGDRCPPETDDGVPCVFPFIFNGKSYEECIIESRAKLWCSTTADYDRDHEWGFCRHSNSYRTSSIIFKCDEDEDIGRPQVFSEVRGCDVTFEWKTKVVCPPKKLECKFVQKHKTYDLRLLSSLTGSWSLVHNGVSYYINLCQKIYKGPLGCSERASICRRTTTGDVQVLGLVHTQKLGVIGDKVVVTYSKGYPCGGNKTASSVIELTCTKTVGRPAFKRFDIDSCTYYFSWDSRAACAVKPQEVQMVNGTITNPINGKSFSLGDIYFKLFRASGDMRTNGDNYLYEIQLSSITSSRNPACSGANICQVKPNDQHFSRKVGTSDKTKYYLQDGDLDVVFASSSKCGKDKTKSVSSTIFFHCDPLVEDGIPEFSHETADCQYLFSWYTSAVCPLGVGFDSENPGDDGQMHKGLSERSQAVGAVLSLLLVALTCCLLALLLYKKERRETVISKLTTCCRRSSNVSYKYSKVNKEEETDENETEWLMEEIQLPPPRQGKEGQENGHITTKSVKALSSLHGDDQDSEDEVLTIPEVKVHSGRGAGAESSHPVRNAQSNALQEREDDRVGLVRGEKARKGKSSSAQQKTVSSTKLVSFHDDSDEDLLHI
# KLH-IGF2, sequence (P01344 25-91): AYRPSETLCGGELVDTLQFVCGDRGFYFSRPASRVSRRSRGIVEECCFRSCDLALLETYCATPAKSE
substance,measurement,setting,value
MEM-238-647 (antibody),"Median : FL18-A on M6PR-KO K562 cells (target knocked out, control)",[1],220
same,Median : FL18-A,[2],3630
same,"Median : FL18-A on M6PR-KO K562 cells (target knocked out, control)",[3],27.7
same,"Q1 on M6PR-KO K562 cells (target knocked out, control)",[4],86.8%
same,Median : FL18-A,[5],1280
same,"Q1 (events above the Alexa 647 gate, below the FITC gate)",[6],99.2
same,"Q1 on M6PR-KO K562 cells (target knocked out, control)",[7],13.1%
same,"Q1 (events above the Alexa 647 gate, below the FITC gate)",[8],99.5
IgG1-647 (antibody),"Median : FL18-A on M6PR-KO K562 cells (target knocked out, control)",[1],35.3
same,Median : FL18-A,[2],48.4
same,"Median : FL18-A on M6PR-KO K562 cells (target knocked out, control)",[3],14.9
same,"Q1 on M6PR-KO K562 cells (target knocked out, control)",[4],0.39%
same,Median : FL18-A,[5],15.7
same,"Q1 (events above the Alexa 647 gate, below the FITC gate)",[6],0.39
same,"Q1 on M6PR-KO K562 cells (target knocked out, control)",[7],1.47%
same,"Q1 (events above the Alexa 647 gate, below the FITC gate)",[8],0.48
KLH-IGF2 (from UniProt P01344 25-91),Uptake pHrodo (MFI),[9],210000 MFI
